± gives the uncertainty stated by the source.
Assay: self-splicing fitness, log relative to wild type (ln ratio); higher = more splicing; Tetrahymena group I intron in knt gene, E. coli kanamycin selection, DiMSum; sequences stand for … in CUCUCU…GGAGGGAAAAGUUAUCAGGCAUGCACCUGGUAGCUAGUCUUUAAACCAAUAGAUUGCAUCGGUUUAAAAGGCAAGACCGUCAAAUUGCGGGAAAGGGGUCAACAGCCGUUCAGUACCAAGUCUCAGGGGAAACUUUGAGAUGGCCUUGCAAAGGGUAUGGUAAUAAGCUGACGGACAUGGUCCUAACCACGCAGCCAAGUCCUAAGUCAACAGAUCUUCUGUUGAUAUGGAUGCAGUUCACAGACUAAAUGUCGGUCGGGGAAGAUGUAUUCUUCUCAUAAGAUAUAGUCGGACCUCUCCUUAAUGGGAGCUAGCGGAUGAAGUGAUGCAACACUGGAGCCGCUGGGAACUAAUUUGUAUGCGAAAGUAUAUUGAUUAGUUUUGGAGUACUCGUGGUCG
In short: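 The eight P1ex-region nucleotides of an intron in the knt kanamycin-resistance gene on pET-22b(+) were all randomised and the library put into E. coli BL21(DE3). Six replicate transformations were grown overnight at 37°C or 30°C on LB agar with or without 25 μg/mL kanamycin, together with 100 μg/mL carbenicillin, 50 μM IPTG and 0.2% rhamnose. Colonies were pooled and amplicon-sequenced on an Illumina HiSeq 2500. Fitness from DiMSum is the error-weighted combination of wild-type-normalised replicate fold changes, kanamycin over none.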

| Sequence | self-splicing fitness (ln) (30 °C) | self-splicing fitness (ln) (37 °C) |
| --- | --- | --- |
| ACCGAGCAAUAUUACGGCAU | -1.09 ± 0.09 | -0.529 ± 0.11 |
| ACCGAGCAAUAUUACGGCCG | -2.57 ± 0.09 | -1.09 ± 0.1 |
| ACCGAGCAAUAUUACGGUAA | -2.6 ± 0.18 | -1.7 ± 0.12 |
| ACCGAGCAAUAUUACGGUGA | -3.07 ± 0.18 | -1.48 ± 0.13 |
| ACCGAGCAAUAUUACGGUUG | -3.88 ± 0.21 | -2.51 ± 0.16 |
| ACCGAGCAAUAUUACGUCCG | -4.36 ± 0.24 | -1.5 ± 0.14 |
| ACCGAGCAAUAUUACGUGUG | -2.5 ± 0.08 | -1.79 ± 0.079 |
| ACCGAGCAAUAUUACGUUCA | -1.34 ± 0.13 | -0.705 ± 0.1 |
| ACCGAGCAAUAUUACGUUUC | -4.37 ± 0.29 | -2.94 ± 0.32 |
| ACCUAGCAAUAUUACGAAUA | -2.75 ± 0.15 | -2.94 ± 0.18 |
| ACCUAGCAAUAUUACGACAC | -0.951 ± 0.1 | -0.536 ± 0.17 |
| ACCUAGCAAUAUUACGACCG | -1.16 ± 0.13 | 0.144 ± 0.12 |
| ACCUAGCAAUAUUACGAGGA | -2.16 ± 0.12 | -0.9 ± 0.12 |
| ACCUAGCAAUAUUACGAGUA | -2.47 ± 0.14 | -1.16 ± 0.12 |
| ACCUAGCAAUAUUACGAGUC | -2.53 ± 0.3 | -2.78 ± 0.48 |
| ACCUAGCAAUAUUACGAUAU | -1.58 ± 0.092 | -0.443 ± 0.12 |
| ACCUAGCAAUAUUACGAUGC | -1.22 ± 0.078 | -0.172 ± 0.081 |
| ACCUAGCAAUAUUACGCACU | -0.127 ± 0.085 | 0.3 ± 0.12 |
| ACCUAGCAAUAUUACGCAGU | -2.58 ± 0.17 | -1.53 ± 0.19 |
| ACCUAGCAAUAUUACGCAUA | -2 ± 0.2 | -1.85 ± 0.16 |
| ACCUAGCAAUAUUACGCGCA | -0.569 ± 0.08 | -0.709 ± 0.087 |
| ACCUAGCAAUAUUACGCGCC | -0.396 ± 0.09 | -0.477 ± 0.12 |
| ACCUAGCAAUAUUACGCGCG | -0.971 ± 0.13 | 0.377 ± 0.13 |
| ACCUAGCAAUAUUACGCGGC | -3.53 ± 0.33 | -1.38 ± 0.17 |

| Sequence | self-splicing fitness (ln) (30 °C) | self-splicing fitness (ln) (37 °C) |
| --- | --- | --- |
| ACCUAGCAAUAUUACGCGGU | -4.32 ± 0.46 | -2.48 ± 0.31 |
| ACCUAGCAAUAUUACGCGUC | -2.91 ± 0.27 | -0.412 ± 0.14 |
| ACCUAGCAAUAUUACGCUAC | -2.93 ± 0.13 | -2.02 ± 0.15 |
| ACCUAGCAAUAUUACGCUCA | -1.71 ± 0.14 | -0.169 ± 0.17 |
| ACCUAGCAAUAUUACGCUGC | -2.42 ± 0.12 | -1.06 ± 0.13 |
| ACCUAGCAAUAUUACGCUUU | -1.26 ± 0.055 | -0.293 ± 0.081 |
| ACCUAGCAAUAUUACGGGAU | -2.07 ± 0.1 | -0.904 ± 0.1 |
| ACCUAGCAAUAUUACGGUCG | -3.53 ± 0.17 | -2.11 ± 0.14 |
| ACCUAGCAAUAUUACGUAAA | -2.13 ± 0.096 | -1.47 ± 0.12 |
| ACCUAGCAAUAUUACGUGAA | -2.1 ± 0.097 | -1.18 ± 0.12 |
| ACCUAGCAAUAUUACGUGCA | -2.89 ± 0.12 | -1.25 ± 0.1 |
| ACGAAGCAAUAUUACGACAA | -0.701 ± 0.2 | -0.985 ± 0.19 |
| ACGAAGCAAUAUUACGAGCG | -0.87 ± 0.075 | -0.411 ± 0.12 |
| ACGAAGCAAUAUUACGAGUA | -3.49 ± 0.21 | -2.73 ± 0.17 |
| ACGAAGCAAUAUUACGAUAA | -1.62 ± 0.15 | -1.39 ± 0.14 |
| ACGAAGCAAUAUUACGAUCA | -1.08 ± 0.12 | -0.536 ± 0.12 |
| ACGAAGCAAUAUUACGAUUA | -1.36 ± 0.077 | -0.917 ± 0.072 |
| ACGAAGCAAUAUUACGCACG | -3.26 ± 0.18 | -2.22 ± 0.17 |
| ACGAAGCAAUAUUACGCCAU | -4.46 ± 0.39 | -3.02 ± 0.26 |
| ACGAAGCAAUAUUACGCGCA | -0.419 ± 0.068 | 0.542 ± 0.1 |
| ACGAAGCAAUAUUACGGCAU | -0.981 ± 0.1 | 0.219 ± 0.11 |
| ACGAAGCAAUAUUACGGCUG | -0.78 ± 0.052 | -0.0127 ± 0.084 |
| ACGAAGCAAUAUUACGGGAU | -3.47 ± 0.13 | -1.8 ± 0.14 |

Source: the supplement of paper PMC7877785
